Data taken from US7572612B2, “Method of production of para-hydroxycinnamic acid using a thermostable TAL enzyme” (E.I. du Pont de Nemours and Company, priority 2006, dated 2009).

What was measured:
[1] = Conversion of tyrosine to pHCA in 3 L Applikon BioReactors; format: cell-based, E. coli
Protocol: The following experiment was performed in an Applikon BioReactor (9.0 liter working volume) where pH and temperature of the reaction were controlled. Both strains DPD5154 and DPD5124 were tested. The E. coli DPD5154 (PcTAL) cells were produced by the protocol described in Example 6, with a final cell density of […]. In the case of E. coli DPD5124 (RgTAL) the inoculum was grown in a 2.0 L shake flask containing 500 ml of the following medium (in grams per liter) KH2PO4 (2.0 g/L), K2HPO4 (13.0 g/L), (NH4)2HPO4 […]), MgSO4.7H2O (1.0 g/L), yeast extract (2.0 g/L), Ferric Ammonium Citrate (0.1 g/L). The pH was adjusted to 7.0 and the medium steam sterilized. Glucose (30.0 g/L) and ampicillin (50 mg/L) were added post-sterilization. The culture was grown in 2 L flasks with 500 mL medium, at 35° C. to about OD550 of 2.0 and then the entire contents was used to inoculate the fermentor. The fermentor was controlled at 36° C., pH 6.8, with the dissolved oxygen (DO) tension of 25% controlled with cascade of agitation and air flow with agitation from 400 to 1000 rpm and airflow from 2 to 16 SLPM. The overhead pressure was 0.5. When the glucose level reached below 4.0 g/L a glucose feed program with 60% glucose (w/w) was initiated, consisting of: first 4 h at 0.36 g/min, next 12 h at 0.73 g/min and to the end of run at 0.56 g/min. When the culture reached an OD550 of 35, arabinose was added to final concentration of 0.5 g/L The fermentation was terminated 20 h after arabinose addition. The final cell density in the fermentation broth was an OD550 of 90 and the final volume was about 9 liter. The g dcw/L was determined assuming that 1.0 OD550 contained 0.33 g dcw/L:=30 g dcw/L.
The cells were harvested by centrifugation and stored as a frozen paste at −80° C. until use. Before use, the cell paste was thawed and suspended in the saline solution to about 10% w/v. The cell dry weight concentration was calculated from [cells wet weight]×[% solids] where [% solids] was determined after drying the cells in a vacuum oven, at 90° C. for >16 h.
The tyrosine used was AR grade (J. T. Baker). It was suspended in distilled, deionized water at 33% w/w concentration, homogenized in a blender and added to about 50 g/L final concentration. Reactions were conducted in 3 L Applikon BioReactors (Applikon, De Brauwweg 13, The Netherlands), with a 1-2 L working volume. The set points for the control systems were pH 9.9 with automatic addition of NaOH 25% w/v with agitation at 400 rpm. The bioconversion was typically done by adding the tyrosine suspension to the appropriate concentration, adjusting the pH and temperature to the determined set point, adding the cell suspension to the appropriate concentration, and DI water to the final volume.

[2] = Whole cell TAL activity temperature profile; format: cell-based, E. coli
Protocol: A fermentation run was performed as in Example 6 for strain DPD5154. The TAL activity of the strain was measured in a cell-based assay at different temperatures. The fermentation cell paste was resuspended in water, and diluted to OD600 of 3.0. Formation of pHCA was monitored in a 1.0 ml reaction in a UV grade disposable cuvette (VWR) for three minutes at λ315 nm, 35° C. with 0.03 OD600 of DPD5154 cells, in 100 mM CAPS, pH10 with 10 mM tyrosine. The pH value of the CAPS buffer was adjusted according to the corresponding assay temperature, which was varied from 25° C. to 60° C. The TAL activity was calculated using the following equation based on the assumption that 1.0 OD600 of E. coli cells is equivalent to 0.33 g/L dry cell weight (dcw). The extinction coefficient of pHCA at pH 10 at 315 nm had previously been experimentally determined to be 16,800 M^−1 cm^−1. One unit of enzyme activity is defined as the formation of 1.0 μM of pHCA product per minute reaction. The total TAL Activity (μM/min)=Initial Slope (/min)×[1,000,000 (μM/M)/16,800 M^−1 cm^−1]=Slope (/min)×59.52 (μM)

[3] = 30 C., cell conc 6 g/L, reaction time 19 h
[4] = 35 C., cell conc 6 g/L, reaction time 15 h
[5] = 40 C., cell conc 6 g/L, reaction time 7 h
[6] = 43 C., cell conc 6 g/L, reaction time 6 h
[7] = 45 C., cell conc 2 g/L, reaction time 19 h
[8] = 45 C., cell conc 4 g/L, reaction time 10 h
[9] = 45 C., cell conc 6 g/L, reaction time 6 h
[10] = 48 C., cell conc 6 g/L, reaction time 6 h

B1: PcTAL: thermostable tyrosine ammonia lyase (PAL/TAL) enzyme from Phanerochaete chrysosporium, SEQ ID NO:1 (protein, listed as Phanerochaete chrysosporium)
chain: MPSRIDYYTSSGNGYAQSRKSSAIYPASASTGHAAPSTERKPELLDKFVEAYDELQSYREGKPVIVDGHNLSIPAVAATARFGAAVVLDENPETHERVLQSRRVIVDKVSTQRSVYGVSTGFGGSADTRTSDPLQLGHALLQHQHVGVLPTQTESPLPALPLGDPLATTSMPEAWVRGAILIRMNSLIRGHSGVRWELIEKMGELLRENITPLVPLRGSISASGDLSPLSYIAGTLIGSPAIRVFDGPASYGARRILPSNIALANHGVAPIPLSSKEHLGILNGTAFSASVGALALNEAVHLSLLAQVCTAMGTEAMIGAVGSFDAFIHDTARPHPGQVEVARNVRTLLEDSQMAVKAEDEVHIAEDEGELRQDRYPLRTAAQFLGPQIEDILSAHETVTLECNSTTDNPLIDGETGTVHHGGNFQAMAVTNAMEKTRLAIHHIGKLLFAQATELINPMMNRGLPPNLAATDPSHNYFAKGVDIHLAAYVGELGFLASPVSSHIQSAEMHNQAVNSLALVSARYTISALDVLSLLTAAYLYVLCQALDLRAMHNDLQSSLSAIVRELLPKHFPSAAKRADALLPILERTIFRALNSSSSADCKARMVSVAASTTTPLVDFLSADAALASELANITAFRTELATRAADALTTLRTQYLEGARGAAPASKYLGKTRPVYEFVRVTLNVPMHGRENLHNFEMGPGVEDGIIGNNISTIYEAIRDGKMQNVVMQLVKSIKA
[1]; [3]
  Prod g/L-h: 2.20 g/L-h
  Prod g/g-h: 0.37 g/g-h
[1]; [4]
  Prod g/L-h: 2.79 g/L-h
  Prod g/g-h: 0.46 g/g-h
[1]; [5]
  Prod g/L-h: 5.94 g/L-h
  Prod g/g-h: 0.99 g/g-h
[1]; [6]
  Prod g/L-h: 6.90 g/L-h
  Prod g/g-h: 1.15 g/g-h
[1]; [7]
  Prod g/L-h: 2.22 g/L-h
  Prod g/g-h: 1.11 g/g-h
[1]; [8]
  Prod g/L-h: 4.18 g/L-h
  Prod g/g-h: 1.05 g/g-h
[1]; [9]
  Prod g/L-h: 6.83 g/L-h
  Prod g/g-h: 1.14 g/g-h
[1]; [10]
  Prod g/L-h: 7.00 g/L-h
  Prod g/g-h: 1.17 g/g-h
[2]
  activity at 60° C. relative to that at 25° C. in whole cells: about 6 fold
